The labels stand for the following.
B1: Dynamin-binding protein, residues 146 to 206; numbered along this chain, Q6XZF7 (parent)
chain: SMGQARALMGLSAQLDEELDFREGDVITIIGVPEPGWFEGELEGRRGIFPEGFVELLGPLR

± gives the uncertainty stated by the source.

In this series the parent is B1. Nature of the series: abundance fitness (aPCA) (normalised: wild type 0, dead -1); higher = more abundant; growth selection in yeast, the domain comes from the species named. The conditions noted are these: Homo sapiens.
Turning to V26M, the abundance fitness was -0.154 ± 0.1.

Consider V26W, for which the abundance fitness is -0.554 ± 0.1.

V26Q: the abundance fitness is -0.532 ± 0.14.

As to V26P, the abundance fitness is -0.64 ± 0.12.

In the case of V26C, the abundance fitness is -0.45 ± 0.047.

Regarding V26H, the abundance fitness is -0.279 ± 0.067.

Consider V26T, for which the abundance fitness was -0.319 ± 0.075.

On to V26K, for which the abundance fitness was -0.311 ± 0.12.

For V26G, the abundance fitness is -0.687 ± 0.056.

On to V26F, for which the abundance fitness was -0.464 ± 0.055.

As to L60M, the abundance fitness was -0.062 ± 0.12.

For the variant L60P, the abundance fitness was -0.368 ± 0.19.

Take L60A: the abundance fitness is -0.387 ± 0.26.

L60G: the abundance fitness is -0.176 ± 0.11.

For the variant L60Y, the abundance fitness is -0.862 ± 0.39.

On to E39R, for which the abundance fitness was -0.141 ± 0.051.

Take E39S: the abundance fitness was -0.339 ± 0.044.

With P35D, the abundance fitness was -0.062 ± 0.098.

As to P35S, the abundance fitness was -0.292 ± 0.068.

As to P35E, the abundance fitness is -0.018 ± 0.13.

Take P35I: the abundance fitness is -0.642 ± 0.13.

With P35F, the abundance fitness is -0.717 ± 0.18.

Regarding P35T, the abundance fitness was -0.064 ± 0.088.

Regarding P35G, the abundance fitness is -0.743 ± 0.11.

In the case of P35V, the abundance fitness is -0.202 ± 0.066.

As to P35C, the abundance fitness is -0.363 ± 0.09.

On to P35Q, for which the abundance fitness was -0.203 ± 0.13.

Consider P35M, for which the abundance fitness is -0.473 ± 0.16.

On to P35A, for which the abundance fitness was -0.116 ± 0.062.

For the variant P35N, the abundance fitness is -0.471 ± 0.11.

As for P35R, the abundance fitness is -0.309 ± 0.077.

Consider P35W, for which the abundance fitness was -0.926 ± 0.34.

For the variant R61C, the abundance fitness is -0.234 ± 0.11.

Regarding R61D, the abundance fitness is -0.053 ± 0.084.

With R61L, the abundance fitness is 0.336 ± 0.35.

As for R61G, the abundance fitness was -0.123 ± 0.096.

In the case of R61K, the abundance fitness amounted to 0.47 ± 0.3.

For R61E, the abundance fitness was -0.018 ± 0.15.

In the case of R61F, the abundance fitness is -0.363 ± 0.12.

For the variant R61I, the abundance fitness is -0.135 ± 0.13.

With R61H, the abundance fitness is -0.153 ± 0.08.

With L11Q, the abundance fitness was 0.191 ± 0.072.

For L11V, the abundance fitness was -0.402 ± 0.081.

Regarding L8S, the abundance fitness is -0.305 ± 0.045.

L8T: the abundance fitness turned out to be 0.014 ± 0.057.

On to G24N, for which the abundance fitness is -0.253 ± 0.065.

With G24I, the abundance fitness was -0.897 ± 0.13.

G24W: the abundance fitness is -0.891 ± 0.21.

On to G24T, for which the abundance fitness was -0.818 ± 0.12.

Turning to G24R, the abundance fitness was -0.778 ± 0.09.

With G24Q, the abundance fitness is -0.733 ± 0.28.

With G24E, the abundance fitness is -0.593 ± 0.2.

For G24A, the abundance fitness is -0.551 ± 0.079.

With G24Y, the abundance fitness was -0.729 ± 0.1.

In the case of G24P, the abundance fitness is -0.749 ± 0.13.

For G24V, the abundance fitness was -0.701 ± 0.08.

In the case of G24F, the abundance fitness is -0.82 ± 0.1.

Consider G24H, for which the abundance fitness was -0.679 ± 0.17.

On to P50S, for which the abundance fitness is -0.674 ± 0.068.

As for P50M, the abundance fitness is -0.38 ± 0.11.

Turning to P50L, the abundance fitness was -0.655 ± 0.089.

Turning to P50H, the abundance fitness was -0.333 ± 0.067.

Take P50R: the abundance fitness is -0.068 ± 0.061.

Turning to P50D, the abundance fitness is -0.797 ± 0.13.

With P50F, the abundance fitness is -0.669 ± 0.09.

As for P50G, the abundance fitness is -0.621 ± 0.072.

For P50K, the abundance fitness is -0.212 ± 0.17.

Regarding P50I, the abundance fitness is -0.691 ± 0.082.

Consider P50C, for which the abundance fitness was -0.93 ± 0.15.

In the case of P50A, the abundance fitness was -0.736 ± 0.11.

With P50E, the abundance fitness is -0.509 ± 0.19.

P50N: the abundance fitness is -0.371 ± 0.069.

For P50Y, the abundance fitness was -0.794 ± 0.11.

Regarding P50Q, the abundance fitness was -0.314 ± 0.13.

With P50V, the abundance fitness is -1.02 ± 0.12.

Consider L56R, for which the abundance fitness is -0.399 ± 0.12.

L56I: the abundance fitness is -0.42 ± 0.13.

On to L56V, for which the abundance fitness was -0.152 ± 0.087.

For G36E, the abundance fitness is -0.958 ± 0.2.

On to G36R, for which the abundance fitness is -0.709 ± 0.077.

For G36Q, the abundance fitness is -0.797 ± 0.22.

Consider G36M, for which the abundance fitness is -0.584 ± 0.17.

Take G36K: the abundance fitness was -0.347 ± 0.12.

On to G36L, for which the abundance fitness was -0.831 ± 0.1.

Turning to G36D, the abundance fitness was -0.824 ± 0.23.

As for L19D, the abundance fitness was -0.413 ± 0.17.

As for L19H, the abundance fitness is -0.768 ± 0.15.

L19K: the abundance fitness is -0.705 ± 0.35.

For L19A, the abundance fitness is -0.525 ± 0.076.

Turning to L19C, the abundance fitness was -0.684 ± 0.12.

Regarding G10Q, the abundance fitness is -0.016 ± 0.12.

Take G10R: the abundance fitness is -0.014 ± 0.055.

With G10E, the abundance fitness is -0.14 ± 0.09.

For G10L, the abundance fitness is -0.436 ± 0.13.

For G52M, the abundance fitness is 0.046 ± 0.23.

Take G52Y: the abundance fitness was -0.064 ± 0.3.

Turning to G52R, the abundance fitness is 0.117 ± 0.18.

With G52W, the abundance fitness was -0.053 ± 0.21.

In the case of G52I, the abundance fitness amounted to 0.04 ± 0.16.

Consider G52E, for which the abundance fitness was -0.189 ± 0.25.

Take G52T: the abundance fitness was -0.083 ± 0.15.

As to G52H, the abundance fitness came to 0.404 ± 0.22.

G52A: the abundance fitness amounted to 0.111 ± 0.11.

As for G52L, the abundance fitness is -0.29 ± 0.31.

Consider G31T, for which the abundance fitness was -0.717 ± 0.32.

In the case of G31Y, the abundance fitness was -0.975 ± 0.42.

As to G31W, the abundance fitness was -0.955 ± 0.36.

For the variant G31K, the abundance fitness was -0.085 ± 0.24.

As for G31P, the abundance fitness is -0.121 ± 0.15.

With F38W, the abundance fitness was -0.667 ± 0.11.

For the variant F38H, the abundance fitness is -1.08 ± 0.16.

Regarding F38Q, the abundance fitness is -1.12 ± 0.29.

For F38K, the abundance fitness was -0.503 ± 0.098.

As to F38P, the abundance fitness is -0.994 ± 0.16.

With E17T, the abundance fitness was -0.101 ± 0.053.

Turning to E17C, the abundance fitness was found to be 0.07 ± 0.042.

On to V54N, for which the abundance fitness was -0.674 ± 0.45.

V54K: the abundance fitness is -0.671 ± 0.25.

With V54G, the abundance fitness was -0.708 ± 0.07.

Regarding V54I, the abundance fitness is -0.947 ± 0.24.

Regarding V54E, the abundance fitness is -0.81 ± 0.38.

As to V32F, the abundance fitness was -0.446 ± 0.15.

As for V32C, the abundance fitness is -0.12 ± 0.06.

On to V32G, for which the abundance fitness is -0.599 ± 0.075.

As to V32K, the abundance fitness was -0.349 ± 0.19.

As to V32N, the abundance fitness was -0.232 ± 0.17.

For V32Q, the abundance fitness came to 0.189 ± 0.1.

With V32P, the abundance fitness is -1.04 ± 0.23.

Consider G58H, for which the abundance fitness is -0.23 ± 0.085.

Turning to G58T, the abundance fitness is -0.079 ± 0.069.

As to G58E, the abundance fitness worked out at 0.082 ± 0.15.

Turning to G58Q, the abundance fitness is -0.013 ± 0.1.

Turning to R22W, the abundance fitness was -0.542 ± 0.11.

As to R22Q, the abundance fitness was -0.027 ± 0.089.

Regarding R22Y, the abundance fitness is -0.352 ± 0.19.

Take R22L: the abundance fitness was -0.282 ± 0.14.

On to R22I, for which the abundance fitness was -0.191 ± 0.064.

Consider R22C, for which the abundance fitness was found to be 0.081 ± 0.11.

With P59K, the abundance fitness was -0.889 ± 0.35.

In the case of P59T, the abundance fitness is -0.685 ± 0.18.

For P59M, the abundance fitness is -0.386 ± 0.34.

As for Q4L, the abundance fitness is -0.176 ± 0.047.

For Q4M, the abundance fitness was -0.065 ± 0.13.

For the variant G47I, the abundance fitness is -1.06 ± 0.35.

Regarding G47Q, the abundance fitness was -0.861 ± 0.18.

For G47V, the abundance fitness is -0.719 ± 0.069.

Consider G47E, for which the abundance fitness is -0.962 ± 0.37.

Regarding G47D, the abundance fitness was -0.804 ± 0.27.

For G47K, the abundance fitness was -0.839 ± 0.45.

G47L: the abundance fitness is -0.696 ± 0.11.

Turning to F21T, the abundance fitness was -0.465 ± 0.11.

Consider F21V, for which the abundance fitness is -0.711 ± 0.09.

In the case of F21E, the abundance fitness was -0.481 ± 0.17.

F21N: the abundance fitness was -0.832 ± 0.11.

For the variant F21I, the abundance fitness is -0.435 ± 0.065.

For R46Y, the abundance fitness is -0.698 ± 0.36.

For R46Q, the abundance fitness was -0.571 ± 0.3.

For the variant R46C, the abundance fitness was -0.303 ± 0.059.

Take A5C: the abundance fitness was -0.302 ± 0.067.

In the case of A5K, the abundance fitness is -0.696 ± 0.39.

On to A5G, for which the abundance fitness was -0.008 ± 0.045.

For the variant A5D, the abundance fitness is -0.706 ± 0.18.

Take A5P: the abundance fitness was -0.686 ± 0.11.

On to A5S, for which the abundance fitness was -0.545 ± 0.13.

On to M9F, for which the abundance fitness is -0.225 ± 0.045.

As to M9C, the abundance fitness was -0.013 ± 0.061.

In the case of M9T, the abundance fitness was 0.017 ± 0.051.
